The source of these data is paper PMC11883961.

For this assay, the target named is T1, MAPRE1 (native MS), Q15691.
T1 chain: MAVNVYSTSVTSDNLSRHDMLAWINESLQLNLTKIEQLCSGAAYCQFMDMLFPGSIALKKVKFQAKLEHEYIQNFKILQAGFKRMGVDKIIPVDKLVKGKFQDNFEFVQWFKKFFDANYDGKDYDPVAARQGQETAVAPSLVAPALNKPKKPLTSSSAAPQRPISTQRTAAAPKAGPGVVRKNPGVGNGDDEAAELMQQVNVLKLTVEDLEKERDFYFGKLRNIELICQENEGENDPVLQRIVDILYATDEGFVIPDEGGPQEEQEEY
Nature of the assay: native MS. The following applies: remark: other sources report otherwise.

B1: MAPRE1 (native MS), Q15691 1-268 (natural protein)
chain: T1 chain
In the case of B1, the stoichiometry N stood at 2.

Broadly, the stoichiometry N is a count of units in the complex or per binding partner.
